Patent US20230374114A1 (published 2023)
Where a chain is given by its changes, count along the chain named.

B1: Ab_18 (scFv, V domains shown)
VH: EVQLVQSGGGVVQPGRSLRVSCAASGFSFSRYGMHWVRQAPGKGLEWVAFIRHDGSKKYYADSVEGRFTISRDNSRNTVSLEMNSLRGEDTAVYYCAKDGRLEAALDDWGQGTLVTVSS
VL: NFMLTQPHSMSGSAGKTVTVSCIRSSGSIANNFVQWYQQRPGSAPTTVIYEDNQRPSGVPDRFSGSIDSSSNSASLTISGLKTEDEADYYCQSYDSSNLVFGGGTRLTVL
B2: Ab 15 scFv-Fc (scFv, V domains shown)
VH: QVQLVQSGGGLVKPGRSLRLSCTASGFTFGDYAMSWFRQAPGKGLEWVGFIRSKAYGGTTGYAASVKGRFTISRDDSKSIAYLQMNSLKTEDTAVYYCTTADDDMDVWGKGTTVTVSS
VL: NFMLTQPHSVSESPGKTVTISCTRSSGTIASNYVQWYQQRPGSAPTTVIYEDNQRPSGVPDRFSGSIDRSSNSASLTISGLTPDDEADYYCQSYDTSNHYVFGTGTKVTVL
B3: Ab 25 scFv-Fc (scFv, V domains shown)
VH: QVQLVQSGGGLVQPGGSLRLSCAASGFTFSSYWMSWVRQAPGKGLEWVANIKQDGSEKYYVDSVKGRFTISRDNAKNSLYLQMNSLRAEDTAVYYCARGFYYYGAFDIWGQGTTVTVSS
VL: NFMLTQPHSVSESPGKTVTISCTGSSGSIASNYVQWYQQRPGSAPTTVIYEDNQRPSGVPDRFSGSIGSSSNSASLTISGLKTEDEADYYCQSYDSSNHWVFGGGTKLTVL
B4: Ab_13 (scFv, V domains shown)
VH: QVTLKESGPKLVKPTQTLTLTCTFSGFSLSTSGVGVGWIRQPPGKALEWLALIYWDDDKRYSPSLKSRLTIAKDTSKYQVVLTMTNMDPVDTATYYCARISGSGYFYPFDIWGQGTMVTVSA
VL: B3 VL with G24R, G68D, H99L
B5: Ab 14 scFv-Fc (scFv, V domains shown)
VH: QVQLQQSGPGLVKPSQTLSLTCAISGDSVSSNSAAWNWIRQSPARGLEWLGRTYYRSRWYNDYAISMKSRITINPDTSKNQFSLQLESVTPEDTAVYYCAREIRGFDYWGQGTLVTVSS
VL: QSVLTQPPSASGSPGQSVTISCTGTSSDVGAYNFVSWYQHHPGKAPKLIIYDFNKRPSGVPDRFSGSKSGNTASLTVSGLQADDEADYYCSSYAGSNNFDVVFGGGTKLTVL
B6: Ab 28 scFv-Fc (scFv, V domains shown)
VH: QVTLKESGPGLVNPSETLSLTCTVSGASISNSFWSWIRQSPGKGLEWIGYTSYSGNSIYNPSLKSRLTMSIDTSKNQLSLNLRSLTAADTAVYYCARREWIKGHFDYWGQGTLVTVSS
VL: B3 VL with S26G, G68D, H99P, W100V
B7: Ab 27 scFv-Fc (scFv, V domains shown)
VH: QVQLVQSGTEVKKPGASVKVSCKASGYSFTGSHLHWVRQAPGQGLEWMGWINPDSGVINYAQKFQGRVTLTRDTSISTAYMELSGLRSDDTAVYYCARDKAIGYVWALDYWGQGTLVTVSS
VL: QSALTQPPSVSGSPGQSVTISCTGTSSDVGTYNRVSWYQQPPGKAPKLMIYEVSNRPSGVSNRFSGSKSGNTASLTISGLQAEDEADYYCSSYTRTFTYVFGTGTKVTVL
B8: Ab 23 scFv-Fc (scFv, V domains shown)
VH: EVQLVQSGAEVKKPGSSVKVSCRSSGGTFSTYGITWVRQAPGQGLEWMGRIIPSLGIPNYAQKFQGRVTITADTSVSTAWMELSSLESDDTAIYYCARENIDLATNDFWGQGTLVTVSS
VL: QSALTQPPSASGSPGQSVTISCTGTSRDIGAYGYVSWYQQVPGKAPKLIIYEVRNRPSGVSSRFSGSKSGNTASLTISGLQAEDEADYYCSSYTSSSTLDVVFGGGTKLTVL
B9: Ab 12 Fab (Fab, V domains shown)
VH: EVQLVESGPGVVSPSATLFLTCSVSGGSIRTHSWNWIRQPPGKPLEWIGFIHHSGATNKNPSLKSRVTISSDTSKNEFSLTLTSVTAADTAVYYCARGPGILSYWSRGTLVTVSS
VL: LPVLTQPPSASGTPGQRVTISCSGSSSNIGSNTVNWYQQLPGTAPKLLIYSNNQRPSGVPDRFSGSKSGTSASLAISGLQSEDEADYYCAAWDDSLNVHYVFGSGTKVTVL
B10: Ab 19 scFv-Fc (scFv, V domains shown)
VH: EVQLVESGAEVKKPGESLKISCKGSGYSFTSYWIGWVRQMPGKGLEWMGIIYPGDSDTRYSPSFQGQVTISADKSISTAYLQWSSLKASDTAMYYCARRGDLDAFDIWGQGTMVTVSS
VL: QPGLTQPPAASGTPGQRVTVSCSGASANIGSNAVSWFKQFPETAPRLLISGNTHRPSGVPDRVSGSKSGTSASLTISGLQSDDEADYYCAAWDDSLNGYVFGSGTKVTVL
B11: Ab 20 (scFv, V domains shown)
VH: QVQLVQSGGGSVKPGGSLRLSCAASGYRLSDYYMHWVRQAPGKGLEWVANIKQDGSEKYYVDSVKGRFTISRDNAKNSLYLQMNSLRAEDTAVYYCARVRGWSRGYFDYWGQGTLVTVSS
VL: B3 VL with G68D, T77L
B12: Ab 21 (scFv, V domains shown)
VH: QVQLVQSGGGLVQPGGSLRLSCATSGFTFDDYAMHWVRQAPGKGLEWVSGISWNSGSIGYVDSVKGRFTISRDNRNNKVYLQMNNLRAEDTAVYYCARDWWGSIDHWGLGTLVTVSS
VL: QSALTQPRSVSGSPGQSVTISCTGTSSDVGGYDYVSWYQQHPGKAPKLIIYDVSKRPSGVPDRFSGSKSGNTASLTVSGLQAEDEADYYCSSYTSSSPVVFGGGTKLTVL
B13: Ab 26 scFv-Fc (scFv, V domains shown)
VH: QVQLVQSGGGLVQPGRSLRLSCAASGFTFDDYAMHWVRQVPGKGLEWVSGIDWNSGVIGYADSVKGRFTISRDNAKNSLYLQMNSLRAEDTALYYCAKDAYSYGFLGAFDIWGQGTMVTVSS
VL: LPVLTQPPSVSVAPGQTASITCGGDNIRTKGVHWYQQKPGQAPLLVIYYASDRPSGIPERFSGSSSGNTATLTISRVEAGDEADYYCQVWDSSSDLVVFGGGTTLTVL
B14: Ab 12 IgG (antibody, V domains shown)
VH: B9 VH
VL: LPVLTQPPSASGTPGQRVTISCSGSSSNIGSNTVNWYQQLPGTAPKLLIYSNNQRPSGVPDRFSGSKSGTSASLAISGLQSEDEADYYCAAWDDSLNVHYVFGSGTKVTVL
B15: Ab_17 (scFv, V domains shown)
VH: QVQLVQSGGGVVQPGRSLRLSCAASGFTFDDYAMHWVRQVPGKGLEWVSGIDWNSGVIGYADSVKGRFTISRDNVKNSLYLQMNSLRTEDSALYYCAKDIGPGGSGSYYAFDIWGQGTTVTVSS
VL: QSALTQPASVSGSPGQSITISCTGTSSDVGGSKYVSWYQQHPGKAPKVMIYDVTKRPSGVPDRFSGSKSGNTASLTISGLQAEDEADYYCAAWDDSLNGVVFGGGTKLTVL
B16: Ab 12 scFv-Fc (S1-R3-T1-H7) (scFv, V domains shown)
VH: B9 VH
VL: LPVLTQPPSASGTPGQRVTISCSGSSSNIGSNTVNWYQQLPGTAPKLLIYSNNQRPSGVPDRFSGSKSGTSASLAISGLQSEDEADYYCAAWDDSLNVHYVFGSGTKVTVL
B17: Ab_16 (scFv, V domains shown)
VH: QVQLVQSGGGVVQPGRSLRLSCAASGFTFSNYGMHWVRQAPGKGLEWVALIWERGSKKDYADSVKGRFTVSRDNSKNTLYLQMNSLRPEDTAVYFCAREGISMTGAEYFQHWGQGTLVTVSS
VL: QSVLTQPPSVSGSPGQRVTMSCTGSSSNIGAGYDVHWYQQVPGAAPRLLIYGTNNRPSGVPDRFSGSKSGTSASLTITGLQAEDEADYYCQSYDNSLTDPYVFGTGTKVTVL

Tests used:
[1] = molecular target: biotinylated RBD (BLI sensors) (UniProt P0DTC2 319-537); test: BLI
[2] = molecular target: SARS2 spike on transduced 293T cells (UniProt P0DTC2 14-1273); test: FACS

Binder | Kd [1] [nM] | EC50 [2] [nM]
B1 | 2.31 | 
B2 | 6.61 | 
B3 | 0.223 | 
B4 | 0.922 | 
B5 | 0.911 | 
B6 | 0.166 | 
B7 | 0.906 | 
B8 | < 0.001 | 
B9 |  | 0.582
B10 | 0.533 | 
B11 | 1.9 | 
B12 | 1.48 | 
B13 | 0.704 | 
B14 |  | 0.00588
B15 | 0.882 | 
B16 |  | 0.0237
B17 | 0.959 | 
